For this assay, the target named is T1, biotinylated CD59 (Homo sapiens, UniProt P13987).
T1 construct: Recombinant soluble human CD59 with an additional C-terminal cysteine residue
T1 sequence (P13987 26-102 limits assumed): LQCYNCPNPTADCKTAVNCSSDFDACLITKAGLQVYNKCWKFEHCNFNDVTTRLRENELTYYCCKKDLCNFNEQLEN
The assay is described as follows: mRNA-display cyclic peptide screen against CD59-biotin, NGS abundance after 6th selection round. Particulars: for Counts (raw counts for peptide sequence), Seq I: NGS sample Seq I; for Counts (raw counts for peptide sequence), Seq I / Counts (raw counts for peptide sequence), Seq II / Counts Seq I / Counts Seq II: sheet R6 (6th selection round); for Counts (raw counts for peptide sequence), Seq II: NGS sample Seq II; for Percentage of the pool, averaged across the two sequencing samples: average of Seq I and Seq II; for Percentage of the pool, averaged across the two sequencing samples / Percentage of the pool, Seq I / Percentage of the pool, Seq II / Percentage Seq I / Percentage Seq II / Percentage Average: sheet R6; for Percentage of the pool, Seq I: counts normalised by total counts of NGS sample Seq I; for Percentage of the pool, Seq II: counts normalised by total counts of NGS sample Seq II; for Percentage Seq I: counts normalised by total counts of sample Seq I; for Percentage Seq I / Percentage Seq II: percentage of the pool; for Percentage Seq II: counts normalised by total counts of sample Seq II; for Percentage Average: percentage of the pool averaged across the two sequencing samples; for Counts Seq I / Counts Seq II: raw NGS counts of peptide sequence; for Counts Seq I: sequencing sample Seq I; for Counts Seq II: sequencing sample Seq II. The source says: To discover novel non‐protein CD59 ligands, we screened a library of 10^12 cyclic peptides against CD59 using mRNA‐display (Figure 2a).^[ [23], [24], [25], [26], [27], [28], [29] ^] Briefly, an mRNA library was designed in which the start codon was reprogrammed from Met to N‐chloroacetyl‐D‐Tyr (ClAc‐D‐Tyr), followed by 10–12 randomly encoded natural amino acids, a Cys residue, a (GlySer)3 linker, and a stop codon. […] The total library diversity was 1.51 × 10^13 molecules, comprising 5.02 × 10^12 molecules of each macrocycle size, covering a subset of the maximum theoretical diversity of this library design. Following in vitro translation, ClAc‐D‐Tyr spontaneously reacts with either the C‐terminal Cys or a Cys in the random region, yielding macrocyclic thioether peptides. Hits from the library were identified through iterative enrichment and amplification against biotinylated CD59, then immobilized on streptavidin beads. Fifteen hit sequences (CP‐01 to CP‐15), enriched with abundance >1% relative to the total pool of recovered binders after the 6th round of selection, were synthesized by solid phase peptide synthesis (SPPS), without the (Gly‐Ser)3 linker.
Figure 2 Discovery of macrocyclic peptide ligands with nanomolar CD59 affinity using mRNA display. a) The selection process. PCR = polymerase chain reaction, SPPS = solid phase peptide synthesis. b) Table showing details of the peptides with nanomolar affinity for CD59 as well as the binding affinity of the lead inhibitor of CD59, rILYd4. K D values are presented as the average of three technical replicates ± SEM. Structures of all peptides and SPR sensograms are presented in Figures S1 and S2. *indicates the presented sequences are the variable regions of these cyclic peptides; each is flanked by an N‐terminal Ac‐D‐Tyr cyclized to a C‐terminal Cys. R6 abundance (%) is defined as (the given number of NGS reads for a given sequence/the total number of reads of unique sequences observed in NGS)*100 following the 6th selection round. c) Representative sensogram of the interaction between CP‐06 with immobilized CD59 by SPR analysis. Inset showing the equilibrium binding curve of CP‐06 to CD‐59. Below in the box are the association and dissociation rate constants of CP‐06. Concentrations are plotted in descending order from 800‐3.1 nM in line with their position on the legend. […] (nM)'; the box with Kon/Koff has no label of its own / ILYd4: the label may be cut off at the left edge (possibly 'rILYd4') / CP-02, KD: 15.3 ± 0.2, small print, 3 or 8 uncertain / CP-03, KD: 23.4 ± 0.7, small print / CP-06, KD: 11.3 ± 0.0, small print, 3 or 8 uncertain / CP-13, KD: 10.8 ± 0.7, small print, 8 or 6 uncertain / ILYd4, KD: 48.3 ± 1.1, small print, 8 and 3 uncertain
The mRNA-display cyclic peptide screen was performed against CD59-biotin by T.E.M: DNA templates for transcription were generated by PCR in a similar manner to that previously described.^2 RNA oligonucleotides were transcribed from the DNA templates using T7 RNA polymerase and purified by phenol/chloroform extraction followed by ethanol precipitation. Oligonucleotide concentrations were determined spectroscopically by absorbance at 260 nm. In the first selection round a 1:1:1 molar ratio of NNK10/NNK11/NNK12 was used. The procedure for selection rounds 2-6 is described below; round 1 was conducted at twice the scale.
RNA encoding for the peptide library ligated to a puromycin-modified oligonucleotide was […] (final [RNA] = 2.5 µM) using a customised PURE express kit (lacking release factor 1 and methionine, supplemented with […] initiator tRNA acylated with N-chloroacetyl-d-tyrosine prepared as previously described)^3 in a final volume of 5.6 µL for 1 hour at 37 °C.
This mixture was incubated at 42 °C for 1 hour before being diluted to 500 µL with PBS (10 mM Na-PO4 pH 7.4, 2.7 mM KCl, 137 mM NaCl) and 0.5 µL taken for subsequent use in qPCR. […]

As to CFLNRASFSGI, the “Counts (raw counts for peptide sequence), Seq I” value was 60; the “Counts (raw counts for peptide sequence), Seq II” value turned out to be 6; the “Percentage of the pool, averaged across the two sequencing samples” value is on record as 0.014%; the “Percentage of the pool, Seq I” value came to 0.014%. Besides, the “Percentage of the pool, Seq II” value was determined as 0.014%.
With FIRGDSTSVLF, the “Counts (raw counts for peptide sequence), Seq I” value worked out at 54; the “Counts (raw counts for peptide sequence), Seq II” value is given as 6; the “Percentage of the pool, averaged across the two sequencing samples” value was 0.013%; the “Percentage of the pool, Seq I” value was 0.012%. Further, the “Percentage of the pool, Seq II” value is 0.014%.
Regarding PFAKRVAAQGGC, the “Counts (raw counts for peptide sequence), Seq I” value amounted to 24; the “Counts (raw counts for peptide sequence), Seq II” value is given as 6; the “Percentage of the pool, averaged across the two sequencing samples” value was 0.010%; the “Percentage of the pool, Seq I” value is 0.00549%. The “Percentage of the pool, Seq II” value stood at 0.014%.
Regarding VKYGNSNFVRG, the “Percentage Seq I” value is recorded as 0.660%, the “Percentage Seq II” value worked out at 0.657%, the “Percentage Average” value amounted to 0.659% and the “Counts Seq I” value is reported as 2889. In addition, the “Counts Seq II” value was 283.
The like results for WTRGSKDYTRG were, in that order, 0.168%, 0.167%, 0.168%, 737 and 72.
SVRGDLYSVLG: the “Counts (raw counts for peptide sequence), Seq I” value came out at 74; the “Counts (raw counts for peptide sequence), Seq II” value turned out to be 7; the “Percentage of the pool, averaged across the two sequencing samples” value was determined as 0.017%; the “Percentage of the pool, Seq I” value was 0.017%. Besides, the “Percentage of the pool, Seq II” value turned out to be 0.016%.
Regarding IARGDRTFSFG, the “Percentage Seq I” value was 0.013%, the “Percentage Seq II” value was determined as 0.035%, the “Percentage Average” value came to 0.024% and the “Counts Seq I” value stood at 57. The “Counts Seq II” value is 15.
The like results for CYGGRTSIYAWS were, in that order, 0.032%, 0.023%, 0.028%, 142 and 10.
The like results for CYGGRTYIYAWS were, in that order, 0.018%, 0.019%, 0.018%, 77 and 8.
SAWGSRQIQYY: the “Percentage Seq I” value was 0.059%, the “Percentage Seq II” value turned out to be 0.051%, the “Percentage Average” value stood at 0.055% and the “Counts Seq I” value amounted to 257. In addition, the “Counts Seq II” value is 22.
ASWLPSPCKFN: the “Percentage Seq I” value is 0.029%, the “Percentage Seq II” value is 0.037%, the “Percentage Average” value is on record as 0.033% and the “Counts Seq I” value worked out at 128. Moreover, the “Counts Seq II” value is listed as 16.
The like results for CFSHRSNSDGI were, in that order, 0.092%, 0.081%, 0.087%, 404 and 35.
Regarding YVYGSRDRC, the “Counts (raw counts for peptide sequence), Seq I” value stood at 74; the “Counts (raw counts for peptide sequence), Seq II” value is on record as 5; the “Percentage of the pool, averaged across the two sequencing samples” value is reported as 0.014%; the “Percentage of the pool, Seq I” value is 0.017%. Further, the “Percentage of the pool, Seq II” value is on record as 0.012%.
For TFRKRLTATCGT, the “Percentage Seq I” value was 0.016%, the “Percentage Seq II” value is on record as 0.028%, the “Percentage Average” value turned out to be 0.022% and the “Counts Seq I” value was 68. Moreover, the “Counts Seq II” value is 12.
For the sequence CYGGRAFIYAWS, the “Percentage Seq I” value was 0.042%, the “Percentage Seq II” value is recorded as 0.044%, the “Percentage Average” value is 0.043% and the “Counts Seq I” value amounted to 185. The “Counts Seq II” value was 19.
As to SVGGSRSWTRG, the “Percentage Seq I” value is reported as 0.129%, the “Percentage Seq II” value was found to be 0.146%, the “Percentage Average” value was determined as 0.138% and the “Counts Seq I” value was found to be 566. Moreover, the “Counts Seq II” value was 63.
The like results for CYGGQTFIYAWS were, in that order, 0.026%, 0.030%, 0.028%, 114 and 13.
The like results for SSYRELAHLPC were, in that order, 0.031%, 0.046%, 0.039%, 135 and 20.
As to SISGGRDYTRG, the “Percentage Seq I” value was found to be 0.032%, the “Percentage Seq II” value stood at 0.026%, the “Percentage Average” value is on record as 0.029% and the “Counts Seq I” value worked out at 141. The “Counts Seq II” value is recorded as 11.
Take FVRGDLYSVLS: the “Counts (raw counts for peptide sequence), Seq I” value came out at 43; the “Counts (raw counts for peptide sequence), Seq II” value is recorded as 4; the “Percentage of the pool, averaged across the two sequencing samples” value is listed as 0.010%; the “Percentage of the pool, Seq I” value was 0.010%. Further, the “Percentage of the pool, Seq II” value came to 0.009%.
On to WSTRTFTCRTLL, for which the “Percentage Seq I” value is listed as 0.395%, the “Percentage Seq II” value is 0.446%, the “Percentage Average” value is listed as 0.420% and the “Counts Seq I” value is listed as 1728. Moreover, the “Counts Seq II” value was 192.
For the sequence WRDRFGQCVL, the “Counts (raw counts for peptide sequence), Seq I” value amounted to 27; the “Counts (raw counts for peptide sequence), Seq II” value is listed as 7; the “Percentage of the pool, averaged across the two sequencing samples” value is recorded as 0.011%; the “Percentage of the pool, Seq I” value was determined as 0.006%. For the same sequence, the “Percentage of the pool, Seq II” value is on record as 0.016%.
Consider VARGDWNHQFY, for which the “Counts (raw counts for peptide sequence), Seq I” value turned out to be 40; the “Counts (raw counts for peptide sequence), Seq II” value is given as 7; the “Percentage of the pool, averaged across the two sequencing samples” value is 0.013%; the “Percentage of the pool, Seq I” value is 0.009%. The “Percentage of the pool, Seq II” value was 0.016%.
In the case of RTCHLRHDGPHA, the “Counts (raw counts for peptide sequence), Seq I” value was determined as 59; the “Counts (raw counts for peptide sequence), Seq II” value stood at 6; the “Percentage of the pool, averaged across the two sequencing samples” value is recorded as 0.014%; the “Percentage of the pool, Seq I” value is 0.013%. Moreover, the “Percentage of the pool, Seq II” value came to 0.014%.
On to QWNRWYGMDEL, for which the “Percentage Seq I” value came to 0.284%, the “Percentage Seq II” value worked out at 0.260%, the “Percentage Average” value worked out at 0.272% and the “Counts Seq I” value worked out at 1243. In addition, the “Counts Seq II” value was found to be 112.
